Results from patent US20210032312A1 (Janssen / Centocor, published 2021).

Legend:
[1] = biological target: T1, cynomolgus monkey CD8 alpha on primary cynomolgus CD8+ T cells (cynomolgus monkey, UniProt P01732 23-235 (human entry)); test: flow cytometry, cyno CD8+ T cells
T1 construct: also called Cyno CD8alpha; cyno CD8A
Experimental: (§1) Binding of the 190 ELISA hits to human and cynomologous monkey primary CD8 T cells was assessed by flow cytometry. The FN3 domain molecules were diluted to 2 μM and 0.2 μM in PBS and incubated with human or cynomologous monkey CD8+ T cells in 96-well format. After 1 hour at 4 C, the cells were washed once with PBS and then resuspended with an anti-FN3 domain antibody (PAB25) solution. Following this incubation, the cells were washed twice with PBS and a PE conjugated secondary antibody and a viability dye were added. Finally, cells were washed and resuspended in PBS for flow cytometric analysis using a BD Canto Instrument. Cells were gating on live cells and median fluorescence intensity of the bound Centyrins (PE channel) was calculated using Cytobank software.

human CD8A-Fc (in house) = biological target: T2, human CD8A-Fc (in house) (human, UniProt P01732 22-182, limits assumed); test: SPR (ProteOn), captured hCD8A-Fc
T2 construct: captured by goat anti-human Fc on the ProteOn chip; also called hCD8A-Fc; recombinant human CD8 alpha; not shown: linker/tag and Fc of human IgG1

[2] = biological target: T3, human CD8 alpha (CD8A) on primary human CD8+ T cells (human, UniProt P01732 22-235); test: flow cytometry, human CD8+ T cells
T3 construct: whole, on cells; also called hCD8A
Experimental: as §1

T3 sequence (P01732 22-235): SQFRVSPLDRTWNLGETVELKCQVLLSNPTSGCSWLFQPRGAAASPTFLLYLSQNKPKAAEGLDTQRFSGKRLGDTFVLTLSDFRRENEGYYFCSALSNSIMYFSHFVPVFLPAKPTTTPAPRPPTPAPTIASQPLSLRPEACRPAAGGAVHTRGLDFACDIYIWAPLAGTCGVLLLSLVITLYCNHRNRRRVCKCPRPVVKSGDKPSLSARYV
T2 sequence (P01732 22-182 limits assumed): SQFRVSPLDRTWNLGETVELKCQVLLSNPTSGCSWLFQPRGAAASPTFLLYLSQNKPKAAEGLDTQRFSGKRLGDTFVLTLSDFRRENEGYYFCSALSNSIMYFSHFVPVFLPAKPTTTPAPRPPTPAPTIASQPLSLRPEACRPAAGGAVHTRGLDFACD
T1 sequence (P01732 other isoform, or with tags, fused parts or gaps limits assumed): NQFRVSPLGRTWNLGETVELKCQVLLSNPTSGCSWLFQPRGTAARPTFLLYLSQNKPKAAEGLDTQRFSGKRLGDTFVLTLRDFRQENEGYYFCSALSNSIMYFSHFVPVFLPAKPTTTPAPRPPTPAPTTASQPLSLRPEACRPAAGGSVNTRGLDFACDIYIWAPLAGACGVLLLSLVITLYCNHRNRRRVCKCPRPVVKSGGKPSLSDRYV

Binder | Cyno T-cell Binding 0.2 uM (MFI) [1] [MFI] | Cyno T-cell Binding 2 uM (MFI) [1] [MFI] | koff (human CD8A-Fc (in house)) [s⁻¹] | Human T-cell Binding 0.2 uM (MFI) [2] [MFI] | Human T-cell Binding 2 uM (MFI) [2] [MFI]
P283DR9P1364_D11 (designed binder, FN3 domain) LPAPKNLVVSRVTEDSARLSWTAPDAAFDSFDIAYPEWPPKGEAIVLTVPGSERSYDLTGLKPGTEYFVVIYGVKGGIHSAPLSAIFTT | 16200 | 70400 | 0.000514 | 4220 | 32300
P283DR9P1364_H1 (designed binder, FN3 domain) LPAPKNLVVSRVTEDSARLSWTAPDAAFDSFQISYPEWPVHGEAIVLTVPGSERSYDLTGLKPGTEYWVIIWGVKGGRQSWPLSAIFTT | 10600 | 54000 | 0.000613 | 3030 | 29200
P283FR9P1366_A9 (designed binder, FN3 domain) LPAPKNLVVSRVTEDSARLSWTAPDAAFDSFNIAYGEYPGPGEAIVLTVPGSERSYDLTGLKPGTEYWVPIWGVKGGELSEPLSAIFTT | 580 | 8810 | 0.00394 | 252 | 1720
P283FR9P1366_D8 (designed binder, FN3 domain) LPAPKNLVVSRVTEDSARLSWTAPDAAFDSFEIAYPEIPIAGEAIVLTVPGSERSYDLTGLKPGTEYFVIIYGVKGGDWSDPLSAIFTT | 2300 | 28200 | 0.00134 | 413 | 3390
P283FR9P1366_C4 (designed binder, FN3 domain) LPAPKNLVVSRVTEDSARLSWTAPDAAFDSFNIAYPEWPVRGEAIVLTVPGSERSYDLTGLKPGTEYWVIIIGVKGGEDSWPLSAIFTT | 10200 | 63400 | 0.000536 | 3750 | 33800
P283DR9P1364_F2 (designed binder, FN3 domain) LPAPKNLVVSRVTEDSARLSWTAPDAAFDSFWIAYPEWPVPGEAIVLTVPGSERSYDLTGLKPGTEYFVIIQGVKGGFGSFPLSAIFTT | 16900 | 91500 | 0.000161 | 6250 | 39200
P283FR9P1366_C2 (designed binder, FN3 domain) LPAPKNLVVSRVTEDSARLSWTAPDAAFDSFKISYPEWPPEGEAIVLTVPGSERSYDLTGLKPGTEYAVFIWCVKGGEHSWPLSAIFTT | 19300 | 89200 | 0.000491 | 4320 | 41000
P283FR9P1366_D12 (designed binder, FN3 domain) LPAPKNLVVSRVTEDSARLSWTAPDAAFDSFDIAYPEWPLGGEAIVLTVPGSERSYDLTGLKPGTEYWVIILGVKGGDQSWPLSAIFTT | 8140 | 87600 | 0.00176 | 1530 | 27800
P283DR9P1364_G9 (designed binder, FN3 domain) LPAPKNLVVSRVTEDSARLSWTAPDAAFDSFGIWYPEWPVGGEAIVLTVPGSERSYDLTGLKPGTEYWVNISGVKGGEYSFPLSAIFTT | 2800 | 47100 | 0.00779 | 401 | 9890
P283FR9P1366_A5 (designed binder, FN3 domain) LPAPKNLVVSRVTEDSARLSWTAPDAAFDSFWIAYPEWPTRGEAIVLTVPGSERSYDLTGLKPGTEYFVVIYGVKGGSPSPPLSAIFTT | 10900 | 67800 | 0.000585 | 3600 | 27600
P283DR9P1364_E3 (designed binder, FN3 domain) LPAPKNLVVSRVTEDSARLSWTAPDAAFDSFGIAYPELPIGGEAIVLTVPGSERSYDLTGLKPGTEYFVIIRGVKGGTLSPPLSAIFTT | 887 | 9130 | 0.00253 | 317 | 1280
P283DR9P1364_G10 (designed binder, FN3 domain) LPAPKNLVVSRVTEDSARLSWTAPDAAFDSFSIAYPEWPGSGEAIVLTVPGSERSYDLTGLKPGTEYFVVIFGVKGGSQSWPLSAIFTT | 769 | 10900 | 0.00253 | 409 | 6290
P283FR9P1366_A1 (designed binder, FN3 domain) LPAPKNLVVSRVTEDSARLSWTAPDAAFDSFWITYPEWPVPGEAIVLTVPGSERSYDLTGLKPGTEYAVFIWGVKGGDASEPLSAIFTT | 1650 | 39400 | 0.00226 | 516 | 8780
P283DR9P1364_H6 (designed binder, FN3 domain) LPAPKNLVVSRVTEDSARLSWTAPDAAFDSFIIAYPETPVRGEAIVLTVPGSERSYDLTGLKPGTEYFVIIIGVKGGQESFPLSAIFTT | 418 | 6000 | 0.0023 | 268 | 2620
P283DR9P1364_E9 (designed binder, FN3 domain) LPAPKNLVVSRVTEDSARLSWTAPDAAFDSFDIAYPEWPTKGEAIVLTVPGSERSYDLTGLKPGTEYFVVINGVKGGWRSFPLSAIFTT | 2100 | 19700 | 0.0019 | 548 | 4300
P283FR9P1366_B7 (designed binder, FN3 domain) LPAPKNLVVSRVTEDSARLSWTAPDAAFDSFWITYPEWPVNGEAIVLTVPGSERSYDLTGLKPGTEYWVVIWGVKGGVESPPLSAIFTT | 4670 | 51200 | 0.00115 | 899 | 11400

Results, then the binder that gave them:

Cyno T-cell Binding 0.2 uM (MFI) [1] [MFI] | Cyno T-cell Binding 2 uM (MFI) [1] [MFI] | koff (human CD8A-Fc (in house)) [s⁻¹] | Human T-cell Binding 0.2 uM (MFI) [2] [MFI] | Human T-cell Binding 2 uM (MFI) [2] [MFI] | Binder
1040 | 4630 | 0.00207 | 407 | 1820 | P283FR9P1366_C3 (designed binder, FN3 domain) LPAPKNLVVSRVTEDSARLSWTAPDAAFDSFKIAYPEWPDGGEAIVLTVPGSERSYDLTGLKPGTEYFVIIYGVKGGILSPPLSAIFTT
2580 | 41400 | 0.000354 | 566 | 7520 | P283FR9P1366_D7 (designed binder, FN3 domain) LPAPKNLVVSRVTEDSARLSWTAPDAAFDSFSIAYPELPVKGEAIVLTVPGSERSYDLTGLKPGTEYFVVIWGVKGGTYSGPLSAIFTT
2240 | 28700 | 0.00243 | 442 | 5390 | P283DR9P1364_E7 (designed binder, FN3 domain) LPAPKNLVVSRVTEDSARLSWTAPDAAFDSFNIAYPEWPVRGEAIVLTVPGSERSYDLTGLKPGTEYWVIIYGVKGGDRSNPLSAIFTT
10400 | 79600 | 0.000509 | 4550 | 32900 | P283FR9P1366_D6 (designed binder, FN3 domain) LPAPKNLVVSRVTEDSARLSWTAPDAAFDSFNIFYPELVFPGEAIVLTVPGSERSYDLTGLKPGTEYWVNISGVKGGEHSWPLSAIFTT
1680 | 26200 | 0.00143 | 483 | 4540 | P283FR9P1366_C6 (designed binder, FN3 domain) LPAPKNLVVSRVTEDSARLSWTAPDAAFDSFSIAYPEWPVYGEAIVLTVPGSERSYDLTGLKPGTEYFVVIYGVKGGNYSDPLSAIFTT
5090 | 55700 | 0.000825 | 1270 | 17600 | P283DR9P1364_E5 (designed binder, FN3 domain) LPAPKNLVVSRVTEDSARLSWTAPDAAFDSFWISYPEWPVPGEAIVLTVPGSERSYDLTGLKPGTEYWVIIQGVKGGKLSWPLSAIFTT
9460 | 60600 | 0.000964 | 834 | 11500 | P283DR9P1364_H11 (designed binder, FN3 domain) LPAPKNLVVSRVTEDSARLSWTAPDAAFDSFDIAYPELPLGGEAIVLTVPGSERSYDLTGLKPGTEYFVIIWGVKGGDRSEPLSAIFTT
